According to the DeepSol protein solubility set:

assay: soluble on expression in E. coli; label from the status in PepcDB or PDB records

| Sequence | soluble on expression in E. coli |
| --- | --- |
| MGSDKIHHHHHHMNKLRILHLNDLHSHLERFPVIERFFAEKSHEEVESLSFDLGDNVDRVHPLTEATEGQFNVELMNRLDLTAATIGNNEGLGLTHEMLSHLYDEANFPVLLSNLATNFAQSEPLIVTTSFGLRIGLIGLTAPYVLAYPQAGWELSDPFVVLDELLPKLDCDFTILLSHLGKNVDEQIAKDYDEIDLIIGAHTHHLFEHGAQVNQTLLAAAGRYGEYVGQIDLTFNENNQLVDAQIEAIATNTLPQRKSDLVETNGWELRGHKLLEGTVVADLPKALPNVLPDFKGSHYLAKIFADYGNTKLCLMNSGLLVTDELPNHLTLDDLHEFLPHSIRLVRFTFTGEELRQVLLEIMDVSDFLATQKIQGMGFRGKTFGSLIFHGIEPREGDFYIKNSENQSLEKISDEESYQIVLPDQYLFAWYFPLLKKLGKSEILFPYFLREIVAEHFKNK | not soluble |
| MGSDKIHHHHHHMNSMLNILEEISSRIKRPLITLLLFKYLRSVKRLECKNGQIIEIDDPSKYFISDLVYVCDVFKHFKSIKVRNGKVILDGIPFRPSELRYIGDVIEKLKLRVGSNFIAEFIYNGRIVKFRLAMTSKGVTGVFSLYEMFVREDYKVFDYKGKTVLDVCGFIGDSALFFALNDAKKVVSFEPQREAYELLVENVKLNEFDNIIVAINEAVGEKDSMVEFLIPDEFSLGASRYIRAGKKTSVKVRDIIRVMNEFKPDIIKLDCEGCEYGIIDKLLKTGRIYDVEGLVVEFHDTPEVKRWDYIRSLPFDVAIISDNPHWKVTVVSIRVMQNDAPRHI | not soluble |
| MKISVITINYNNGEQLEATIQSVVSNVTVLRELLGEKAEYIVIDGGSVDCSVSVLQKYSEYISYWISEKDKGIYHAMNKGISVAQGEYCFFLNSGDTFYEDDTLKKALLFLKEDFVCGNAVLKYAGGINEWSAPEIVNTLFFMQRFSVCHQSLFIRTELLKSHPYNETLMIVADYEQMFYEIAVNHRSYKKIDLTICYYGCDGVSSDHEKADAEKRSVINEFRYLGYIEPDELWNVVSKLKIGTRKYRLLLSLAKCLTSSPKYWVRLEHHHHHH | soluble |
| MGSDKIHHHHHHMTPRANALPTDAGELYYSYARPADGALPSLSRQKGLLGIITFQTGFVGEGDGAKPEGILQIPLSGRGDDLCELWKTTQPVLAGTFGDITYRCSRDFLFGSIALAVADLPAGNHGLIHPPLQNAAELAYQQIFSLLDRHGYPGLLRIWNFVPDINGVSHGLEHYRQFNIGRQDAFLAHNRLPSRQNIPAASALGSVDGPLVVYFLAARRNSVAVENPRQISAYHYPQEYGPSSPTFSRAGWVDLGQQKILFISGTASIIGHQTRHGGNVAAQARESMANIAAVVAETNRVAAGSPYDLNDLSYKVYLRQFTDLPIVRAELDRLVTPKAPIFYLQADICRADLLVEIEATAGVLHGGMA | not soluble |
| MGSDKIHHHHHHMKKFLENSIHQAIKACFFFLGKLPKKKLFIFESFHGKQYSDNPRAIFEYIRDNCPEYQCIWAVKKGYEMPFVEENVPFVKRLSWRWLWLMPRAQYWVFNTRMPAWMYKNQTTIYIQTWHGTPLKKLGLDIETVKMPEHETESYKLEVIQEAKRWDYLISPNAYSTRVFRQAFHYEGEILEIGYPRNDLLVCENKDKIAFSVRNQLGLAANKKIILYAPTWRDDESIRKGAYRFTNHLPVEQLLEIDSSIVILTRLHYLIAESFDISAFGSRVIDVSSYPDINQLYLIADLLITDYSSVMFDFALTKKPMLFFMYDKEKYQNSTRGFYFDPTAILPGKIVTDTDSLVTSVKNVLFSKTEQEQRLYVQFFREFCLENQDATRQLISEILKR | not soluble |
| GMEAHMKSHNLLEAVRFDDQRFVMELVHESENFKIVSFTFKAGQELPVHSHNIEGELNIVVLEGEGEFVGDGDAVIPAPRGAVLVAPISTPHGVRAVTDMKVLVTIAPPI | soluble |
| DITGIPTGFNELDKMTAGFQRNDLIIVAARPSVGKTAFALNIAQNVATKTDENVAIFSLEMGAEQLVMRMLCAEGNINAQNLRTGALTSDDWQKLTIAMGTLSNSGIYIDDTPGVRVNEIRSKCRRLKQETGLGMIVIDYLQLIAGSGRGGENRQQEVSEISRSLKALARELEVPVIALSQLSRSVEQRQDKRPMMSDI | not soluble |
| MSLASRRSKLIAVVVPQINNNMFVDTIQSLSDELARRGYHILLCVAGYTEQTEAELVATLLSRRPDGVVLTGIHHTIELKKVILNAAIPVVEIWDLTPTPLDMLVGFSHEKVGQATGEYLLSKGYRRPGLLWTADRRAAQRKQGLCSVLQRHAIHAVPQVDVPLPASLSLGRSGLSQLFDEGTFDVIVCSSDTLAQGAMMEAESRGLRIPHDLAVIGFGDLDFAASNRPSITTVSVDRRAIGQRAATLLADRIEQKPCAEAIVDIGFHLIGRESAEGHHHHHH | not soluble |
| SLADHMLKRACEWMRFLGYTVYYPECHYDNDILKTCIEKKLVLLTRDIELYKRYALSVYIDSVNINEQIIQITRQFPPDPGKFMTKCPDCGSDLILMRSNGLDIPDKIKKSFSMVRYCNKCSKAFWPGTHYIKIIEKINRLLK | not soluble |
| GSPGISGGGGGSHIEGYECQPIFLNVLEAIEPGVVCAGHDNNQPDSFAALLSSLNELGERQLVHVVKWAKALPGFRNLHVDDQMAVIQYSWMGLMVFAMGWRSFTNVNSRMLYFAPDLVFNEYRMHKSRMYSQCVRMRHLSQEFGWLQITPQEFLCMKALLLFSIIPVDGLKNQKFFDELRMNYIKELDRIIACKRKNPTSCSRRFYQLTKLLDSVQPIARELHQFTFDLLIKSHMVSVDFPEMMAEIISVQVPKILSGKVKPIYFHTQ | soluble |
| MVINGLDILLQNPEVLRHRRVGLIANQTSVSMQLEYSWMLLKRAGVELTRIFSPEHGLFAIEQDQIAVGHQPDIGCEIVSLYGDSEHSLAPARELLDGLDLVLFDIQDVGSRYYTYVNTLALFMKAAEGLDIEIMVLDRPNPLGGSLIEGPQLDPAFHSFVGVMPLPVRHGLTAGEIAHFYRNYKKLDLNLNVIPMQGWSRQMLFPETCLPWVPPSPNMPSFEAAEVYPGMCLFEGLNVSEGRGTTTPFLLSGATFVDPEALAERLASMPLEGVVFRPTWFRPTFHKYAGEAIGGLYLHVTDHARFRPFATGVAMTCALYELYPEQLAFLDGVYEFRDDIPAFDLLAGSSTIRSMILDNRDTTAIIASWEKDEAEFAAIKPNFHLYNN | not soluble |
| LDDYDWFAGNISRSQSEQLLRQKGKEGAFMVRNSSQVGMYTVSLFSKAVNDKKGTVKHYHVHTNAENKLYLAENYCFDSIPKLIHYHQHNSAGMITRLRHPVS | soluble |
| MAHHHHHHMFSRGAAATAMAKVSRLVSPRLRIIHRDYLTRRGGRTHQRCSAVAVDYTPTYFATYKSDPGQCPRLIDAEAVHGDEQAFWSARRDFYRGGASRSYYPAWDRQAQALIMLTREVPRIPQEAAFRLFTLGLKMMLLPRLVAGVELMLPSWVTMNAESVLNEGLEGKVAEADGDGKATGAAADAAALPSASSAGANEDSGSANAEKR | soluble |
| GMNDLKRLPYEPVKGLLPRPAVGTSERVITLPEPDRTSGMPLMGTLWLRKSTREFDQQPLPLKQLSELLWAAAGVNRSLGGGRTAPSPYGETVIDVYVALPAGLYRYDPVHHCLELKRAADLRSMTGYQDFVGMAPLDLVFVANHGRMQEMPPKLRETFSAAAAGAMAENAYLYCASAGLGAVVRGWLNRRQLAEHMSLNEDEEPILSQTIGRAASHVTTTQA | soluble |
| MADFKVLSSQDIMWALHELKGHYAITRKDFESHQHMENLTSQDEVPRDTRPFLMPLKNGRSYHQKPVEKGKREKK | not soluble |
| SKGFIDQYPNYSVGLGNLRSLKGDTCNLANDVLVETNTNESFLTPLTGTLGDSLTNDDVRGFDPNRISPWAFTPENRPEALGAANSTGDGSDTAAADSDASNTAAGADSDGSAAKADAASDNQEEAAKKKETHRADQGVNGSHSRLPFNLDYRTVPVLGSWTDGKQEIAEATSSWFKLPKANDNTPLVVVSAAGSIKHKDVNGIVENGQKIVLEYGRSNTGGSLGKAEKLGELDLLDSGIDSTWRNLRIPLSDIPDDADVIRIHAKDTSLDPDEWIAFTPPRVPTMDTLANQFPASTPGLLDWAVPLQFPCQRTFNHYAGVAEIPEYRISADAKGKQSGMNFQDFAGGGVTGIAETINSSYELPSYSKNDWVRDWGSIKMYKLRTNSKGEAPDVATVDTETITRSGLWYPGRMNIDTKVTKN | not soluble |
| MGSDKIHHHHHHVFAGFDYGSANCAMAVCEGDSVRLLPIGDSGGQYLMSVVYALDVSFITEAVCQRLPDNQARALVQKRGAELARARRMRQELDLTATDDTVFIGEAALKAYLDTPEEGFFVRSPKSFLGATGLRPEQVALFEDIVTLMMLEVKGRADALLQNPVTHAVIGRPVNFQGIGGEEANIQAQSILQIAAMRAGFTQVSFLFEPLAAAFDFESSLEADKRVLVVDVGGGTTDCSLVTMGPNKRSQTERSEDCLGHSGQRIGGNDLDIALAMECLMPHYGLGDMLSTGKPMPRQMFWQAVAINDVGAQRDFFSLSYATAIKELRKDAINPDALDRLARLRRDQQHCQLVKLAELAKIDLSGEELTQVEHPDGAHTSVAADAFGLAIAPLVQRIGELMRAAVGDESSPDLIYVTGGSSRCPQVASSIAAVYPGVEVVQGDSFGSVTAGLARRAALEFA | not soluble |
| MKTRVVLILALSVCIEAASEVIRARAYIFKAEAGKIPTELIGTIDFDQSGSFLKLNGSVSGLAAGKHGFHIHEKGDTGNGCLSAGGHYNPHKLSHGAPDDSNRHIGDLGNIESPASGDTLISVSDSLASLSGQYSIIGRSVVIHEKTDDLGRGTSDQSKTTGNAGSRLACGTIGTV | not soluble |
| MSLTERFVLRNVKRVNGEEVDIVIENNKIAQVTKAGAGEGGKVLDYSGTYVSSGWIDLHVHAFPEFDPYGDEVDEIGVKQGVTTIVDAGSCGADRIADLVKSREQAKTNLFAFLNISRIGLKRIDELSNMEWIDKEKVIEAVEKYKDVIVGLKARMSKSVVCDSGIEPLHIARDLSRETSLPIMVHIGSAPPRIEEVVPLLEKDDVITHYLNGKENNLFDEEGKPLPVLLDAVNRGVHLDVGHGNASFSFKVAEAAKRHGIAFNTISTDIYRKNRMHGPVYSMAHVLSKFLYLGYSLEEVIDAVTKHAAEWLKKPELGRIQEGDIANLTLFTVKDEKITLIDSEGDQRIAERRIDTKGVVINGSFIECEGHHHHHH | soluble |
| MSLAKIVNVRPVLLSTPYGFEGCAENALHLPNGIRGCSMVEITLDNGVKGLGEGYLGVFAPDVFTSIARLVGTAITGDDISNGYGAVLAKAKTVTAYWSLQGAAQHVISAIEIALVDALSRVREIPAVELFGGKKVESIAMYGSGGDSLHPQYMAQELEQLAQRGIQTIKIRARHHQAAKTIWTIEAGRQYGIRVAVDMTQNLSIEGQTAEQVQAFCDLIQRETGEELVFVEECLGLDKLTQLPLLALQEGIAVAGGEIVTTKEELFDRIDANYYNVVQPDASVLGGIGDTIAVCEYAKQRSVNPVVHSWGGPVAMMANYVAAFATGCSLIEYPMPHFELRNVMCNLESRIHDGHFHLGDDIGLGVTLTDDIEGQFPHTNDALYHCFPMEDGLQQLEDSHRHWVKAEGHHHHHH | soluble |
| MEECAVSGGFDVSPQELRTFAGKLDVHRSTAEEIAGLVTEADVPERSWGVVGLVVKSECTRMLGDLNELFTALQEGLRSGSEKFTGAAQDYTDQEEAVKELLSGLQVRLDERQGGR | not soluble |
